Publication PMC2447818

Target: GFP-VIM (lens vimentin fused to green fluorescence protein) (UniProt P08670)
Test: FRET or BRET; FRET acceptor photobleaching by confocal laser scanning microscopy in living HeLa cells, 48 h after co-transfection; GFP fusion as donor, RFP fusion as acceptor; RFP bleached at 543 nm for 45 s in a region of interest or a whole cell; E=1 – F(GFP-min)/F(GFP-max)

Chain of GFP-VIM (lens vimentin fused to green fluorescence protein) (P08670 2-466): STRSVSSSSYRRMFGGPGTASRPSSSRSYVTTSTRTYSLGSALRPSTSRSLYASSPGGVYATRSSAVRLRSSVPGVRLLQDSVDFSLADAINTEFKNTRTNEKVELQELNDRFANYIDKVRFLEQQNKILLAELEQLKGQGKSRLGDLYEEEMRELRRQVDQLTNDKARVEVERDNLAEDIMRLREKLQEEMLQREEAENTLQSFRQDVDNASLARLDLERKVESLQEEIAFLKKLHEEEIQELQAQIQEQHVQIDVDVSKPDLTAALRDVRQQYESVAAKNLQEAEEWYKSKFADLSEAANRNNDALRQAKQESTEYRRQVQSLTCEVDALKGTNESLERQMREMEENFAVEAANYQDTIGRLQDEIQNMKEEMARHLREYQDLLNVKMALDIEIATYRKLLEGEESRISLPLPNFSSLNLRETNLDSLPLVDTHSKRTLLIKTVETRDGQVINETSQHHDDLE
Chain of RFP-αB (wild-type αB-crystallin fused to red fluorescence protein) (P02511 whole entry, the tested form may be a part): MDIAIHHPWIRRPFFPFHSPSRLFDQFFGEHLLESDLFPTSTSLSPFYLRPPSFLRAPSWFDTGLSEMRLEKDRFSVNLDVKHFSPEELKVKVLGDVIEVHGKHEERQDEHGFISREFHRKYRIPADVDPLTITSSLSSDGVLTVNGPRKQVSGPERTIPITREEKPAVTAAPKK

RFP-αB (wild-type αB-crystallin fused to red fluorescence protein) (from UniProt P02511 1-175) (natural protein)
FRET efficiency (one representative cell): 9.5%
